{"source": "paper PMC5580921", "about": "“Homeodomain-like DNA binding proteins control the haploid-to-diploid transition in Dictyostelium”", "binders": {"B1": {"name": "EMSA dsDNA with MATalpha2 operator (dsDNA)", "DNA 1": "CCGAAACGTTTGGTGGCGCATGTAATTCATTTACACGCGCGAGGGCGTGCAAGATTC", "DNA 2": "GAATCTTGCACGCCCTCGCGCGTGTAAATGAATTACATGCGCCACCAAACGTTTCGG"}, "B2": {"name": "29-bp DNA (dsDNA)", "DNA 1": "CCGAAACGTTTGGTGGCGGGACCAGTGAC", "DNA 2": "GTCACTGGTCCCGCCACCAAACGTTTCGG"}, "B3": {"name": "58-bp DNA (dsDNA)", "DNA 1": "GAATCTTGCACGCCCTCGCTCAAGCCTTCGTCACTGGTCCCGCCACCAAACGTTTCGG", "DNA 2": "CCGAAACGTTTGGTGGCGGGACCAGTGACGAAGGCTTGAGCGAGGGCGTGCAAGATTC"}}, "key": {"[1]": {"biological_target": "T1, MatA K72A/K76A (Dictyostelium discoideum, UniProt D3UFF3 1-107, K72A;K76A)", "T1 sequence": "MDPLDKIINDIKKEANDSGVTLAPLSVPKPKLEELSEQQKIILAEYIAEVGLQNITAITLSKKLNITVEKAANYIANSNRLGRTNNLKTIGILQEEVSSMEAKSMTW", "assay": "EMSA; EMSA: 10 mM Tris-HCl pH 7.4, 1 mM EDTA, 20 mM NaCl, 30 min room temperature, 6% polyacrylamide gel in 1x tris-borate. NMR: 25 mM phosphate pH 6, 50 mM NaCl, 50", "conditions": "protein: recombinant; tags: His6-lipoyl domain tag removed by TEV; label: none (SYBR Gold stain); blunt"}, "[2]": {"biological_target": "T2, MatB S71A (Dictyostelium discoideum, UniProt D3UFE5 1-107, S71A)", "T2 sequence": "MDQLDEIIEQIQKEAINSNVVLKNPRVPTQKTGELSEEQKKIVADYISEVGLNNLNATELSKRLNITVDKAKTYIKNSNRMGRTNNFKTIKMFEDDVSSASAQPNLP", "assay": "EMSA; similar to wild type; EMSA: 10 mM Tris-HCl pH 7.4, 1 mM EDTA, 20 mM NaCl, 30 min room temperature, 6% polyacrylamide gel in 1x tris-borate. NMR: 25 mM phosphate pH 6, 50 mM NaCl, 50", "conditions": "protein: recombinant; tags: His6-lipoyl domain tag removed by TEV (15N-labeled for NMR); label: none (SYBR Gold stain); blunt"}, "[3]": {"biological_target": "T3, MatB (Dictyostelium discoideum, UniProt D3UFE5 1-107)", "T3 sequence": "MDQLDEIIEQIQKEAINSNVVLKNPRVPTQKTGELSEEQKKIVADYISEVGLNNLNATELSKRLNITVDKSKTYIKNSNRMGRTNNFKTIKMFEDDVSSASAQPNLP", "assay": "EMSA; nonspecific; EMSA: 10 mM Tris-HCl pH 7.4, 1 mM EDTA, 20 mM NaCl, 30 min room temperature, 6% polyacrylamide gel in 1x tris-borate. NMR: 25 mM phosphate pH 6, 50 mM NaCl, 50", "conditions": "protein: recombinant; tags: His6-lipoyl domain tag removed by TEV; label: none (SYBR Gold stain); blunt"}, "[4]": {"biological_target": "T4, MatA (Dictyostelium discoideum, UniProt Q54HW9 1-107)", "T4 sequence": "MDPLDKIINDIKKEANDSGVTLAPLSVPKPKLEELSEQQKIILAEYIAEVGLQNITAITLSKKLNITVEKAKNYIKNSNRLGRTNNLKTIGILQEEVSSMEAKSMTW", "assay": "EMSA; smear; nonspecific, low affinity; EMSA: 10 mM Tris-HCl pH 7.4, 1 mM EDTA, 20 mM NaCl, 30 min room temperature, 6% polyacrylamide gel in 1x tris-borate. NMR: 25 mM phosphate pH 6, 50 mM NaCl, 50", "conditions": "protein: recombinant; tags: His6-lipoyl domain tag removed by TEV (15N-labeled for NMR); label: none (SYBR Gold stain); blunt"}, "[5]": {"biological_target": "T4, MatA", "assay": "NMR; 80 uM DNA, 20 uM MatA; CSPs at L32, L35, E69, I75, K76, N77; EMSA: 10 mM Tris-HCl pH 7.4, 1 mM EDTA, 20 mM NaCl, 30 min room temperature, 6% polyacrylamide gel in 1x tris-borate. NMR: 25 mM phosphate pH 6, 50 mM NaCl, 50", "conditions": "protein: recombinant; tags: His6-lipoyl domain tag removed by TEV (15N-labeled for NMR); label: none; blunt"}, "[6]": {"biological_target": "T2, MatB S71A", "assay": "NMR; 80 uM DNA, 20 uM protein, 1 C; core signals lost by intermediate exchange broadening; EMSA: 10 mM Tris-HCl pH 7.4, 1 mM EDTA, 20 mM NaCl, 30 min room temperature, 6% polyacrylamide gel in 1x tris-borate. NMR: 25 mM phosphate pH 6, 50 mM NaCl, 50", "conditions": "protein: recombinant; tags: His6-lipoyl domain tag removed by TEV (15N-labeled for NMR); label: none; blunt"}, "[7]": {"biological_target": "T4, MatA", "assay": "NMR; 58-bp titration 40-120 uM DNA, 20 uM MatA; fast exchange, very weak, unsaturated; EMSA: 10 mM Tris-HCl pH 7.4, 1 mM EDTA, 20 mM NaCl, 30 min room temperature, 6% polyacrylamide gel in 1x tris-borate. NMR: 25 mM phosphate pH 6, 50 mM NaCl, 50", "conditions": "protein: recombinant; tags: His6-lipoyl domain tag removed by TEV (15N-labeled for NMR); label: none; blunt"}}}
{"binder": "B1", "values": [{"measurement": "binding result", "setting": "[1]", "value": "no binding"}, {"measurement": "binding result", "setting": "[2]", "value": "binds"}, {"measurement": "binding result", "setting": "[3]", "value": "binds"}, {"measurement": "binding result", "setting": "[4]", "value": "binds"}]}
{"binder": "B2", "values": [{"measurement": "binding result", "setting": "[5]", "value": "binds"}, {"measurement": "binding result", "setting": "[6]", "value": "binds"}]}
{"binder": "B3", "values": [{"measurement": "binding result", "setting": "[7]", "value": "binds"}]}
